Measurements reported in PMC10540216, “Activity Guided Azide-methyllysine Photo-trapping for Substrate Profiling of Lysine Demethylases” (Journal of the American Chemical Society, 2023).

Tested on: KDM4A-I71AzF
Assay: CASI: photo-crosslinking with HEK293T cell extracts, StrepTactin enrichment and LC-MS/MS proteomics;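 also: lysates from HEK293T cells pretreated with a KDM4 inhibitor to raise proteome methylation, affinity-purified after ±UV, gel-resolved, trypsin-digested, with exclusive unique peptides per protein averaged per condition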
Type: binding, human
Details: sheet "Final results but with 0.01"

B1: NOLC1_HUMAN (protein, UniProt Q14978 1-699, looked up)
Nucleolar and coiled-body …: MADAGIRRVVPSDLYPLVLGFLRDNQLSEVANKFAKATGATQQDANASSLLDIYSFWLKSAKVPERKLQANGPVAKKAKKKASSSDSEDSSEEEEEVQGPPAKKAAVPAKRVGLPPGKAAAKASESSSSEESSDDDDEEDQKKQPVQKGVKPQAKAAKAPPKKAKSSDSDSDSSSEDEPPKNQKPKITPVTVKAQTKAPPKPARAAPKIANGKAASSSSSSSSSSSSDDSEEEKAAATPKKTVPKKQVVAKAPVKAATTPTRKSSSSEDSSSDEEEEQKKPMKNKPGPYSSVPPPSAPPPKKSLGTQPPKKAVEKQQPVESSEDSSDESDSSSEEEKKPPTKAVVSKATTKPPPAKKAAESSSDSSDSDSSEDDEAPSKPAGTTKNSSNKPAVTTKSPAVKPAAAPKQPVGGGQKLLTRKADSSSSEEESSSSEEEKTKKMVATTKPKATAKAALSLPAKQAPQGSRDSSSDSDSSSSEEEEEKTSKSAVKKKPQKVAGGAAPSKPASAKKGKAESSNSSSSDDSSEEEEEKLKGKGSPRPQAPKANGTSALTAQNGKAAKNSEEEEEEKKKAAVVVSKSGSLKKRKQNEAAKEAETPQAKKIKLQTPNTFPKRKKGEKRASSPFRRVREEEIEVDSRVADNSFDAKRGAAGDWGERANQVLKFTKGKSFRHEKTKKKRGSYRGGSISVQVNSIKFDSE
Fold change (+UV/-UV): 1

B2: DHX15_HUMAN (protein, UniProt O43143 1-795, looked up)
ATP-dependent RNA helicase …: MSKRHRLDLGEDYPSGKKRAGTDGKDRDRDRDREDRSKDRDRERDRGDREREREKEKEKELRASTNAMLISAGLPPLKASHSAHSTHSAHSTHSTHSAHSTHAGHAGHTSLPQCINPFTNLPHTPRYYDILKKRLQLPVWEYKDRFTDILVRHQSFVLVGETGSGKTTQIPQWCVEYMRSLPGPKRGVACTQPRRVAAMSVAQRVADEMDVMLGQEVGYSIRFEDCSSAKTILKYMTDGMLLREAMNDPLLERYGVIILDEAHERTLATDILMGVLKEVVRQRSDLKVIVMSATLDAGKFQIYFDNCPLLTIPGRTHPVEIFYTPEPERDYLEAAIRTVIQIHMCEEEEGDLLLFLTGQEEIDEACKRIKREVDDLGPEVGDIKIIPLYSTLPPQQQQRIFEPPPPKKQNGAIGRKVVVSTNIAETSLTIDGVVFVIDPGFAKQKVYNPRIRVESLLVTAISKASAQQRAGRAGRTRPGKCFRLYTEKAYKTEMQDNTYPEILRSNLGSVVLQLKKLGIDDLVHFDFMDPPAPETLMRALELLNYLAALNDDGDLTELGSMMAEFPLDPQLAKMVIASCDYNCSNEVLSITAMLSVPQCFVRPTEAKKAADEAKMRFAHIDGDHLTLLNVYHAFKQNHESVQWCYDNFINYRSLMSADNVRQQLSRIMDRFNLPRRSTDFTSRDYYINIRKALVTGYFMQVAHLERTGHYLTVKDNQVVQLHPSTVLDHKPEWVLYNEFVLTTKNYIRTCTDIKPEWLVKIAPQYYDMSNFPQCEAKRQLDRIIAKLQSKEYSQY
Fold change (+UV/-UV): 1.071

B3: FUS_HUMAN (protein, UniProt P35637 1-526, looked up)
RNA-binding protein FUS: MASNDYTQQATQSYGAYPTQPGQGYSQQSSQPYGQQSYSGYSQSTDTSGYGQSSYSSYGQSQNTGYGTQSTPQGYGSTGGYGSSQSSQSSYGQQSSYPGYGQQPAPSSTSGSYGSSSQSSSYGQPQSGSYSQQPSYGGQQQSYGQQQSYNPPQGYGQQNQYNSSSGGGGGGGGGGNYGQDQSSMSSGGGSGGGYGNQDQSGGGGSGGYGQQDRGGRGRGGSGGGGGGGGGGYNRSSGGYEPRGRGGGRGGRGGMGGSDRGGFNKFGGPRDQGSRHDSEQDNSDNNTIFVQGLGENVTIESVADYFKQIGIIKTNKKTGQPMINLYTDRETGKLKGEATVSFDDPPSAKAAIDWFDGKEFSGNPIKVSFATRRADFNRGGGNGRGGRGRGGPMGRGGYGGGGSGGGGRGGFPSGGGGGGGQQRAGDWKCPNPTCENMNFSWRNECNQCKAPKPDGPGGGPGGSHMGGNYGDDRRGGRGGYDRGGYRGRGGDRGGFRGGRGGGDRGGFGPGKMDSRGEHRQDRRERPY
Fold change (+UV/-UV): 0.5

B4: CAPR1_HUMAN (protein, UniProt Q14444 2-709, looked up)
Caprin-1: PSATSHSGSGSKSSGPPPPSGSSGSEAAAGAGAAAPASQHPATGTGAVQTEAMKQILGVIDKKLRNLEKKKGKLDDYQERMNKGERLNQDQLDAVSKYQEVTNNLEFAKELQRSFMALSQDIQKTIKKTARREQLMREEAEQKRLKTVLELQYVLDKLGDDEVRTDLKQGLNGVPILSEEELSLLDEFYKLVDPERDMSLRLNEQYEHASIHLWDLLEGKEKPVCGTTYKVLKEIVERVFQSNYFDSTHNHQNGLCEEEEAASAPAVEDQVPEAEPEPAEEYTEQSEVESTEYVNRQFMAETQFTSGEKEQVDEWTVETVEVVNSLQQQPQAASPSVPEPHSLTPVAQADPLVRRQRVQDLMAQMQGPYNFIQDSMLDFENQTLDPAIVSAQPMNPTQNMDMPQLVCPPVHSESRLAQPNQVPVQPEATQVPLVSSTSEGYTASQPLYQPSHATEQRPQKEPIDQIQATISLNTDQTTASSSLPAASQPQVFQAGTSKPLHSSGINVNAAPFQSMQTVFNMNAPVPPVNEPETLKQQNQYQASYNQSFSSQPHQVEQTELQQEQLQTVVGTYHGSPDQSHQVTGNHQQPPQQNTGFPRSNQPYYNSRGVSRGGSRGARGLMNGYRGPANGFRGGYDGYRPSFSNTPNSGYTQSQFSAPRDYSGYQRDGYQQNFKRGSGQSGPRGAPRGRGGPPRPNRGMPQMNTQQVN
Fold change (+UV/-UV): 0.5

B5: RPN1_HUMAN (protein, UniProt P04843 24-607, looked up)
Dolichyl-diphosphooligosacchar …: ASSEAPPLINEDVKRTVDLSSHLAKVTAEVVLAHLGGGSTSRATSFLLALEPELEARLAHLGVQVKGEDEEENNLEVRETKIKGKSGRFFTVKLPVALDPGAKISVIVETVYTHVLHPYPTQITQSEKQFVVFEGNHYFYSPYPTKTQTMRVKLASRNVESYTKLGNPTRSEDLLDYGPFRDVPAYSQDTFKVHYENNSPFLTITSMTRVIEVSHWGNIAVEENVDLKHTGAVLKGPFSRYDYQRQPDSGISSIRSFKTILPAAAQDVYYRDEIGNVSTSHLLILDDSVEMEIRPRFPLFGGWKTHYIVGYNLPSYEYLYNLGDQYALKMRFVDHVFDEQVIDSLTVKIILPEGAKNIEIDSPYEISRAPDELHYTYLDTFGRPVIVAYKKNLVEQHIQDIVVHYTFNKVLMLQEPLLVVAAFYILFFTVIIYVRLDFSITKDPAAEARMKVACITEQVLTLVNKRIGLYRHFDETVNRYKQSRDISTLNSGKKSLETEHKALTSEIALLQSRLKTEGSDLCDRVSEMQKLDAQVKELVLKSAVEAERLVAGKLKKDTYIENEKLISGKRQELVTKIDHILDAL
Fold change (+UV/-UV): 3

B6: DDX21_HUMAN (protein, UniProt Q9NR30 1-783, looked up)
Nucleolar RNA helicase 2: MPGKLRSDAGLESDTAMKKGETLRKQTEEKEKKEKPKSDKTEEIAEEEETVFPKAKQVKKKAEPSEVDMNSPKSKKAKKKEEPSQNDISPKTKSLRKKKEPIEKKVVSSKTKKVTKNEEPSEEEIDAPKPKKMKKEKEMNGETREKSPKLKNGFPHPEPDCNPSEAASEESNSEIEQEIPVEQKEGAFSNFPISEETIKLLKGRGVTFLFPIQAKTFHHVYSGKDLIAQARTGTGKTFSFAIPLIEKLHGELQDRKRGRAPQVLVLAPTRELANQVSKDFSDITKKLSVACFYGGTPYGGQFERMRNGIDILVGTPGRIKDHIQNGKLDLTKLKHVVLDEVDQMLDMGFADQVEEILSVAYKKDSEDNPQTLLFSATCPHWVFNVAKKYMKSTYEQVDLIGKKTQKTAITVEHLAIKCHWTQRAAVIGDVIRVYSGHQGRTIIFCETKKEAQELSQNSAIKQDAQSLHGDIPQKQREITLKGFRNGSFGVLVATNVAARGLDIPEVDLVIQSSPPKDVESYIHRSGRTGRAGRTGVCICFYQHKEEYQLVQVEQKAGIKFKRIGVPSATEIIKASSKDAIRLLDSVPPTAISHFKQSAEKLIEEKGAVEALAAALAHISGATSVDQRSLINSNVGFVTMILQCSIEMPNISYAWKELKEQLGEEIDSKVKGMVFLKGKLGVCFDVPTASVTEIQEKWHDSRRWQLSVATEQPELEGPREGYGGFRGQREGSRGFRGQRDGNRRFRGQREGSRGPRGQRSGGGNKSNRSQNKGQKRSFSKAFGQ
Fold change (+UV/-UV): 1

B7: MCM6_HUMAN (protein, UniProt Q14566 1-821, looked up)
DNA replication licensing …: MDLAAAAEPGAGSQHLEVRDEVAEKCQKLFLDFLEEFQSSDGEIKYLQLAEELIRPERNTLVVSFVDLEQFNQQLSTTIQEEFYRVYPYLCRALKTFVKDRKEIPLAKDFYVAFQDLPTRHKIRELTSSRIGLLTRISGQVVRTHPVHPELVSGTFLCLDCQTVIRDVEQQFKYTQPNICRNPVCANRRRFLLDTNKSRFVDFQKVRIQETQAELPRGSIPRSLEVILRAEAVESAQAGDKCDFTGTLIVVPDVSKLSTPGARAETNSRVSGVDGYETEGIRGLRALGVRDLSYRLVFLACCVAPTNPRFGGKELRDEEQTAESIKNQMTVKEWEKVFEMSQDKNLYHNLCTSLFPTIHGNDEVKRGVLLMLFGGVPKTTGEGTSLRGDINVCIVGDPSTAKSQFLKHVEEFSPRAVYTSGKASSAAGLTAAVVRDEESHEFVIEAGALMLADNGVCCIDEFDKMDVRDQVAIHEAMEQQTISITKAGVKATLNARTSILAAANPISGHYDRSKSLKQNINLSAPIMSRFDLFFILVDECNEVTDYAIARRIVDLHSRIEESIDRVYSLDDIRRYLLFARQFKPKISKESEDFIVEQYKHLRQRDGSGVTKSSWRITVRQLESMIRLSEAMARMHCCDEVQPKHVKEAFRLLNKSIIRVETPDVNLDQEEEIQMEVDEGAGGINGHADSPAPVNGINGYNEDINQESAPKASLRLGFSEYCRISNLIVLHLRKVEEEEDESALKRSELVNWYLKEIESEIDSEEELINKKRIIEKVIHRLTHYDHVLIELTQAGLKGSTEGSESYEEDPYLVVNPNYLLED
Fold change (+UV/-UV): 0.75

B8: MCM5_HUMAN (protein, UniProt P33992 2-734, looked up)
DNA replication licensing …: SGFDDPGIFYSDSFGGDAQADEGQARKSQLQRRFKEFLRQYRVGTDRTGFTFKYRDELKRHYNLGEYWIEVEMEDLASFDEDLADYLYKQPAEHLQLLEEAAKEVADEVTRPRPSGEEVLQDIQVMLKSDASPSSIRSLKSDMMSHLVKIPGIIIAASAVRAKATRISIQCRSCRNTLTNIAMRPGLEGYALPRKCNTDQAGRPKCPLDPYFIMPDKCKCVDFQTLKLQELPDAVPHGEMPRHMQLYCDRYLCDKVVPGNRVTIMGIYSIKKFGLTTSRGRDRVGVGIRSSYIRVLGIQVDTDGSGRSFAGAVSPQEEEEFRRLAALPNVYEVISKSIAPSIFGGTDMKKAIACLLFGGSRKRLPDGLTRRGDINLLMLGDPGTAKSQLLKFVEKCSPIGVYTSGKGSSAAGLTASVMRDPSSRNFIMEGGAMVLADGGVVCIDEFDKMREDDRVAIHEAMEQQTISIAKAGITTTLNSRCSVLAAANSVFGRWDETKGEDNIDFMPTILSRFDMIFIVKDEHNEERDVMLAKHVITLHVSALTQTQAVEGEIDLAKLKKFIAYCRVKCGPRLSAEAAEKLKNRYIIMRSGARQHERDSDRRSSIPITVRQLEAIVRIAEALSKMKLQPFATEADVEEALRLFQVSTLDAALSGTLSGVEGFTSQEDQEMLSRIEKQLKRRFAIGSQVSEHSIIKDFTKQKYPEHAIHKVLQLMLRRGEIQHRMQRKVLYRLK
Fold change (+UV/-UV): 0.9167
